The text below walks through data of publication PMC3038869.

The target in the assay is Epidermal Growth Factor Receptor (EGFR), Drosophila, endogenous (Drosophila (endogenous in ovaries)) (UniProt P04412). The assay can be described thus: co-IP; ovarian lysates of wild-type females or females expressing D-CblL or RING-SH2^Drk in follicle cells, immunoprecipitated with mouse monoclonal anti-EGFR, 4°C; blotted with rabbit anti-EGFR and anti-Drk.
Sequence of UniProt P04412 (P04412 31-1426): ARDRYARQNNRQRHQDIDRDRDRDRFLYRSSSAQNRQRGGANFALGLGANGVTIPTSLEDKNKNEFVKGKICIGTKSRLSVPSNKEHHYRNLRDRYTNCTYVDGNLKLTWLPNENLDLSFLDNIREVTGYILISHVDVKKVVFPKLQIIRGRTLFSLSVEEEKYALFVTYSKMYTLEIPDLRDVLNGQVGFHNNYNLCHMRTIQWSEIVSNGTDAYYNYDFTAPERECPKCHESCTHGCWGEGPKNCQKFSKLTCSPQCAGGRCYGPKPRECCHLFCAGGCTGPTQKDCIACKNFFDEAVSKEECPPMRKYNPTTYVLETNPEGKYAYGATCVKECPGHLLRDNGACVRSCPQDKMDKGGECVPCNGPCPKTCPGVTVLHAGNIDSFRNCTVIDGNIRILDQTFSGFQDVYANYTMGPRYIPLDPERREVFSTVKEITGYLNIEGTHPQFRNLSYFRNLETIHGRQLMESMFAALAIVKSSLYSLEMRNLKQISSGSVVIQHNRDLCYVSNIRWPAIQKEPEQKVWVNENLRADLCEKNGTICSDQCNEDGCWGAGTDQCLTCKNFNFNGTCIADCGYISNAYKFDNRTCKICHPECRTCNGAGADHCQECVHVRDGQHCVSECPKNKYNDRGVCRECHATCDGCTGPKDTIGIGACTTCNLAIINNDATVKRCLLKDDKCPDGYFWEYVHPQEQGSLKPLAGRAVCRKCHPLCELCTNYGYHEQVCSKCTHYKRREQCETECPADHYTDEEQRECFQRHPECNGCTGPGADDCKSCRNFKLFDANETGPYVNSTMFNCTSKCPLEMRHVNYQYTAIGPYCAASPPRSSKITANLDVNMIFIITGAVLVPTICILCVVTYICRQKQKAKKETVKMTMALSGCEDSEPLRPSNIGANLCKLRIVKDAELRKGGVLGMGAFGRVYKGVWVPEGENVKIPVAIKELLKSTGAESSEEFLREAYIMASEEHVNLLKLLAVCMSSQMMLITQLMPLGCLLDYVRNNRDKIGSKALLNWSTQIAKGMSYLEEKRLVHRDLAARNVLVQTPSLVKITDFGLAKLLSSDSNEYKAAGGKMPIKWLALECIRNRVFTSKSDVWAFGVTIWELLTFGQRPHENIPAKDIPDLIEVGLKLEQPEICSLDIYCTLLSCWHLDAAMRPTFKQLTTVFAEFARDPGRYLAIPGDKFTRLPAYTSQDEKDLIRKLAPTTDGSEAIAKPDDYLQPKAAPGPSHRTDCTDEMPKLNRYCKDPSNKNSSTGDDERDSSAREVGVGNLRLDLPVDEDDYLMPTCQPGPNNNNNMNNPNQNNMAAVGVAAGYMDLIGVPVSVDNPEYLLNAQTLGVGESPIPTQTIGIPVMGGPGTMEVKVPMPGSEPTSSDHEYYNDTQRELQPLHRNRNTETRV

For the substance “RING-SH2^Drk, fusion of the RING finger domain of D-CblL and the SH2 domain of Drk (from UniProt Q08012 53-160)”, the percent reduction of Drk in the EGFR complex is 40%.
